Consider 27 molecules from US20180155451A1 (published 2018).

The labels stand for the following.
B1: GpH7-A5/GpH7-B3 variant S337_02A/GpL16-k0 (antibody, human IgG1, kappa)
heavy 1: not shown
heavy 2: not shown
light: DIVMTQSPLSLPVTPGEPASISCQASESLVHSNRNTYLHWYLQKPGQSPQLLIYKVSNRFSGVPDRFSGSGSGTDFTLKISRVEAEDVGVYYCSQNTHVPPTFGQGTKVEIERTVAAPSVFIFPPSDEQLKSGTASVVCLLNNFYPREAKVQWKVDNALQSGNSQESVTEQDSKDSTYSLSSTLTLSKADYEKHKVYACEVTHQGLSSPVTKSFNRGEC
notes: mutation in one H chain only; also called He Ab S337_02A; S337A
B2: GpH7-A5/GpH7-B3 variant S337_10E/GpL16-k0 (antibody, human IgG1, kappa)
heavy 1: not shown
heavy 2: not shown
light: B1 light
notes: mutation in one H chain only; also called He Ab S337_10E; S337E
B3: GpH7-A5/GpH7-B3 variant S298_15Y/GpL16-k0 (antibody, human IgG1, kappa)
heavy 1: not shown
heavy 2: not shown
light: B1 light
notes: mutation in one H chain only; also called He Ab S298_15Y; S298Y
B4: GpH7-A5/GpH7-B3 variant S337_07I/GpL16-k0 (antibody, human IgG1, kappa)
heavy 1: not shown
heavy 2: not shown
light: B1 light
notes: mutation in one H chain only; also called He Ab S337_07I; S337I
B5: GpH7-A5/GpH7-B3 variant S337_15Y/GpL16-k0 (antibody, human IgG1, kappa)
heavy 1: not shown
heavy 2: not shown
light: B1 light
notes: mutation in one H chain only; also called He Ab S337_15Y; S337Y
B6: GpH7-A5/GpH7-B3 variant S324_14T/GpL16-k0 (antibody, human IgG1, kappa)
heavy 1: not shown
heavy 2: not shown
light: B1 light
notes: mutation in one H chain only; also called He Ab S324_14T; S324T
B7: GpH7-A5/GpH7-B3 variant S337_20W/GpL16-k0 (antibody, human IgG1, kappa)
heavy 1: not shown
heavy 2: not shown
light: B1 light
notes: mutation in one H chain only; also called He Ab S337_20W; S337W
B8: GpH7-A5/GpH7-B3 variant S337_06M/GpL16-k0 (antibody, human IgG1, kappa)
heavy 1: not shown
heavy 2: not shown
light: B1 light
notes: mutation in one H chain only; also called He Ab S337_06M; S337M
B9: GpH7-A5/GpH7-B3 variant S298_19Q/GpL16-k0 (antibody, human IgG1, kappa)
heavy 1: not shown
heavy 2: not shown
light: B1 light
notes: mutation in one H chain only; also called He Ab S298_19Q; S298Q
B10: GpH7-A5/GpH7-B3 variant S298_20W/GpL16-k0 (antibody, human IgG1, kappa)
heavy 1: not shown
heavy 2: not shown
light: B1 light
notes: mutation in one H chain only; also called He Ab S298_20W; S298W
B11: GpH7-A5/GpH7-B3 variant S298_04F/GpL16-k0 (antibody, human IgG1, kappa)
heavy 1: not shown
heavy 2: not shown
light: B1 light
notes: mutation in one H chain only; also called He Ab S298_04F; S298F
B12: GpH7-A5/GpH7-B3 variant S324_11K/GpL16-k0 (antibody, human IgG1, kappa)
heavy 1: not shown
heavy 2: not shown
light: B1 light
notes: mutation in one H chain only; also called He Ab S324_11K; S324K
B13: GpH7-A5/GpH7-B3 variant S324_02A/GpL16-k0 (antibody, human IgG1, kappa)
heavy 1: not shown
heavy 2: not shown
light: B1 light
notes: mutation in one H chain only; also called He Ab S324_02A; S324A
B14: GpH7-A5/GpH7-B3 variant S298_18N/GpL16-k0 (antibody, human IgG1, kappa)
heavy 1: not shown
heavy 2: not shown
light: B1 light
notes: mutation in one H chain only; also called He Ab S298_18N; S298N
B15: GpH7-A5/GpH7-B3 variant S324_12R/GpL16-k0 (antibody, human IgG1, kappa)
heavy 1: not shown
heavy 2: not shown
light: B1 light
notes: mutation in one H chain only; also called He Ab S324_12R; S324R
B16: GpH7-A5/GpH7-B3 variant T335_08L/GpL16-k0 (antibody, human IgG1, kappa)
heavy 1: not shown
heavy 2: not shown
light: B1 light
notes: mutation in one H chain only; also called He Ab T335_08L; T335L
B17: GpH7-A5/GpH7-B3 variant S324_20W/GpL16-k0 (antibody, human IgG1, kappa)
heavy 1: not shown
heavy 2: not shown
light: B1 light
notes: mutation in one H chain only; also called He Ab S324_20W; S324W
B18: GpH7-A5/GpH7-B3 variant S337_08L/GpL16-k0 (antibody, human IgG1, kappa)
heavy 1: not shown
heavy 2: not shown
light: B1 light
notes: mutation in one H chain only; also called He Ab S337_08L; S337L
B19: GpH7-A5/GpH7-B3 variant S298_10E/GpL16-k0 (antibody, human IgG1, kappa)
heavy 1: not shown
heavy 2: not shown
light: B1 light
notes: mutation in one H chain only; also called He Ab S298_10E; S298E
B20: GpH7-A5/GpH7-B3 variant S324_03V/GpL16-k0 (antibody, human IgG1, kappa)
heavy 1: not shown
heavy 2: not shown
light: B1 light
notes: mutation in one H chain only; also called He Ab S324_03V; S324V
B21: GpH7-A5/GpH7-B3 variant S324_19Q/GpL16-k0 (antibody, human IgG1, kappa)
heavy 1: not shown
heavy 2: not shown
light: B1 light
notes: mutation in one H chain only; also called He Ab S324_19Q; S324Q
B22: GpH7-A5/GpH7-B3 variant S298_16H/GpL16-k0 (antibody, human IgG1, kappa)
heavy 1: not shown
heavy 2: not shown
light: B1 light
notes: mutation in one H chain only; also called He Ab S298_16H; S298H
B23: GpH7-A5/GpH7-B3 variant T335_15Y/GpL16-k0 (antibody, human IgG1, kappa)
heavy 1: not shown
heavy 2: not shown
light: B1 light
notes: mutation in one H chain only; also called He Ab T335_15Y; T335Y
B24: GpH7-A5/GpH7-B3 variant S337_19Q/GpL16-k0 (antibody, human IgG1, kappa)
heavy 1: not shown
heavy 2: not shown
light: B1 light
notes: mutation in one H chain only; also called He Ab S337_19Q; S337Q
B25: GpH7-A5/GpH7-B3 variant V266_19Q/GpL16-k0 (antibody, human IgG1, kappa)
heavy 1: not shown
heavy 2: not shown
light: B1 light
notes: mutation in one H chain only; also called He Ab V266_19Q; V266Q
B26: GpH7-A5/GpH7-B3 variant S337_04F/GpL16-k0 (antibody, human IgG1, kappa)
heavy 1: not shown
heavy 2: not shown
light: B1 light
notes: mutation in one H chain only; also called He Ab S337_04F; S337F
B27: GpH7-A5/GpH7-B3 variant S324_18N/GpL16-k0 (antibody, human IgG1, kappa)
heavy 1: not shown
heavy 2: not shown
light: B1 light
notes: mutation in one H chain only; also called He Ab S324_18N; S324N

The target in the assay is T1, FcγRIa extracellular domain with C-terminal His tag (human, UniProt P12314 16-292).
T1 construct: extracellular domain; also called FcgRI; CD64; not shown: His tag at the C terminus
T1 sequence (P12314 16-292): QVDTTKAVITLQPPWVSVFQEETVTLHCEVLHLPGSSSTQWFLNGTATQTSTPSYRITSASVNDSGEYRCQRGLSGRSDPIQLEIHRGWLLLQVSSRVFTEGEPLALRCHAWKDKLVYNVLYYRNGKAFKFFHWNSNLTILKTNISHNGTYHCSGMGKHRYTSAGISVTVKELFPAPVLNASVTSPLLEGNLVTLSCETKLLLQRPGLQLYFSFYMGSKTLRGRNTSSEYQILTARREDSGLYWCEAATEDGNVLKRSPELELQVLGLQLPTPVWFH
Description: SPR Biacore, relative FcγRIa binding vs GpH7-A5/GpH7-B3/GpL16-k0. For orientation: Surface plasmon resonance follows binding to a sensor surface in real time, without labels.
B1: the He/Con_1a is 106 % of HeCon Ab (=100).

In the case of B2, the He/Con_1a was 106 % of HeCon Ab (=100).

With B3, the He/Con_1a was 107 % of HeCon Ab (=100).

As for B4, the He/Con_1a was 105 % of HeCon Ab (=100).

Regarding B5, the He/Con_1a is 104 % of HeCon Ab (=100).

B6: the He/Con_1a was 121 % of HeCon Ab (=100).

B7: the He/Con_1a was 105 % of HeCon Ab (=100).

For the molecule B8, the He/Con_1a is 107 % of HeCon Ab (=100).

For the molecule B9, the He/Con_1a was 109 % of HeCon Ab (=100).

As to B10, the He/Con_1a is 104 % of HeCon Ab (=100).

For B11, the He/Con_1a is 109 % of HeCon Ab (=100).

In the case of B12, the He/Con_1a is 102 % of HeCon Ab (=100).

On to B13, for which the He/Con_1a was 103 % of HeCon Ab (=100).

On to B14, for which the He/Con_1a is 108 % of HeCon Ab (=100).

Regarding B15, the He/Con_1a is 102 % of HeCon Ab (=100).

For the molecule B16, the He/Con_1a was 115 % of HeCon Ab (=100).

B17: the He/Con_1a was 114 % of HeCon Ab (=100).

With B18, the He/Con_1a was 105 % of HeCon Ab (=100).

Take B19: the He/Con_1a was 108 % of HeCon Ab (=100).

B20: the He/Con_1a is 104 % of HeCon Ab (=100).

B21: the He/Con_1a was 112 % of HeCon Ab (=100).

Turning to B22, the He/Con_1a was 109 % of HeCon Ab (=100).

For B23, the He/Con_1a was 107 % of HeCon Ab (=100).

With B24, the He/Con_1a was 105 % of HeCon Ab (=100).

Take B25: the He/Con_1a was 100 % of HeCon Ab (=100).

With B26, the He/Con_1a was 106 % of HeCon Ab (=100).

With B27, the He/Con_1a is 116 % of HeCon Ab (=100).
